Measured values published in patent publication US11819556B2, “Stabilized compositions of radionuclides and uses thereof” (RayzeBio, Inc., priority 2021, dated 2023).

Assay: Control formulation without excipient (WFI): radio-TLC purity
Format: physicochemical
Settings: 0.02 mCi/ml; for free Actinium / fragments: 25° C.; for Percentage of ^225Ac present in [^225Ac]Ac-DOTA-TATE: pH 6.13, 25° C.
Experimental: The mixture was kept at room temperature (25° C.). At different time points, purity of [^225Ac]Ac-DOTA-TATE in the formulated dose were measured by radio-TLC as described in the table below: […]

Substance: (2,2′,2″-(10-(2-4(R)-1-(((4R,7S,10S,13R,16S,19R)-13-((1H-indol-3-yl)methyl)-10-(4-aminobutyl)-4-(((1S,2R)-1-carboxy-2-hydroxypropyl)carbamoyl)-16-(4-hydroxybenzyl)-7-((R)-1-hydroxyethyl)-6,9,12,15,18-pentaoxo-1,2-dithia-5,8,11,14,17-pentaazacycloicosan-19-yl)amino)-1-oxo-3-phenylpropan-2-yl)amino)-2-oxoethyl)-1,4,7,10-tetraazacyclododecane-1,4,7-triyl)triacetate; actinium-225(3+)) [[^225Ac]Ac-DOTA-TATE]
- free Actinium (0 hour): 0.5% free Actinium
- Percentage of ^225Ac present in [^225Ac]Ac-DOTA-TATE (0 hour): 99.5%
- fragments (24 hours): 3.2%
- free Actinium (24 hours): 2.0%
- Percentage of ^225Ac present in [^225Ac]Ac-DOTA-TATE (24 hours): 94.8%
- fragments (48 hours): 4.8%
- free Actinium (48 hours): 3.5%
- Percentage of ^225Ac present in [^225Ac]Ac-DOTA-TATE (48 hours): 91.8%
- fragments (72 hours): 7.7%
- free Actinium (72 hours): 8.8%
- Percentage of ^225Ac present in [^225Ac]Ac-DOTA-TATE (72 hours): 83.5%
- fragments (96 hours): 11.8%
- free Actinium (96 hours): 9.2%
- Percentage of ^225Ac present in [^225Ac]Ac-DOTA-TATE (96 hours): 79.1%
